Laboratory results taken from article PMC7082302.
Values joined by “and” are separate entries in the source; they are usually repeats but may differ in a detail not shown here. Equal entries are not always repeated. Values belong to the substance of their own block, whether it stands above or below them.

Columns and labels:
Assay in all cases: SEC; analytical SEC, Superdex 200 Increase 10/300 GL, buffer W (100 mM Tris-HCl pH 8.0, 150 mM NaCl, 2.5 mM EDTA); protein solutions from the two AEC elution peaks; oligomeric state from the elution volume by the column's calibration
[1] = target: Chlamydomonas reinhardtii truncated hemoglobin THB11, full length (Chlamydomonas reinhardtii)
[2] = target: THB11-C (THB11 lacking the C-terminal 225 residues) (Chlamydomonas reinhardtii)
[3] = target: THB11-N (THB11 lacking the N-terminal 41 amino acids) (Chlamydomonas reinhardtii)

stoichiometry N [1]: 3 and 7
Substance: Chlamydomonas reinhardtii truncated hemoglobin THB11, full length (natural protein)

stoichiometry N [2]: 3
Substance: THB11-C (THB11 lacking the C-terminal 225 residues) (domain or fragment)

stoichiometry N [3]: 3 and 7
Substance: THB11-N (THB11 lacking the N-terminal 41 amino acids) (domain or fragment)
